Reference: patent publication US20020143164A1, “Ras activator nucleic acid molecules, polypeptides and methods of use” (priority 1999, published 2002)

Assays:
GRF4 = target: T1, GRF4 (Homo sapiens, UniProt Q9Y4G8, DEL134-254); experiment: Activation of Ras and MAPK by cNMP analogues in GRF4-transfected HEK-293T cells; format: cell-based; settings: HEK-293T cells
T1 construct: Flag, HA or myc tags was added to the N-terminus of full length GRF4 using PCR; expressed in transfected cells; host or cells: HEK-293T
T1 sequence (Q9Y4G8 with tags, fused parts or gaps DEL134-254): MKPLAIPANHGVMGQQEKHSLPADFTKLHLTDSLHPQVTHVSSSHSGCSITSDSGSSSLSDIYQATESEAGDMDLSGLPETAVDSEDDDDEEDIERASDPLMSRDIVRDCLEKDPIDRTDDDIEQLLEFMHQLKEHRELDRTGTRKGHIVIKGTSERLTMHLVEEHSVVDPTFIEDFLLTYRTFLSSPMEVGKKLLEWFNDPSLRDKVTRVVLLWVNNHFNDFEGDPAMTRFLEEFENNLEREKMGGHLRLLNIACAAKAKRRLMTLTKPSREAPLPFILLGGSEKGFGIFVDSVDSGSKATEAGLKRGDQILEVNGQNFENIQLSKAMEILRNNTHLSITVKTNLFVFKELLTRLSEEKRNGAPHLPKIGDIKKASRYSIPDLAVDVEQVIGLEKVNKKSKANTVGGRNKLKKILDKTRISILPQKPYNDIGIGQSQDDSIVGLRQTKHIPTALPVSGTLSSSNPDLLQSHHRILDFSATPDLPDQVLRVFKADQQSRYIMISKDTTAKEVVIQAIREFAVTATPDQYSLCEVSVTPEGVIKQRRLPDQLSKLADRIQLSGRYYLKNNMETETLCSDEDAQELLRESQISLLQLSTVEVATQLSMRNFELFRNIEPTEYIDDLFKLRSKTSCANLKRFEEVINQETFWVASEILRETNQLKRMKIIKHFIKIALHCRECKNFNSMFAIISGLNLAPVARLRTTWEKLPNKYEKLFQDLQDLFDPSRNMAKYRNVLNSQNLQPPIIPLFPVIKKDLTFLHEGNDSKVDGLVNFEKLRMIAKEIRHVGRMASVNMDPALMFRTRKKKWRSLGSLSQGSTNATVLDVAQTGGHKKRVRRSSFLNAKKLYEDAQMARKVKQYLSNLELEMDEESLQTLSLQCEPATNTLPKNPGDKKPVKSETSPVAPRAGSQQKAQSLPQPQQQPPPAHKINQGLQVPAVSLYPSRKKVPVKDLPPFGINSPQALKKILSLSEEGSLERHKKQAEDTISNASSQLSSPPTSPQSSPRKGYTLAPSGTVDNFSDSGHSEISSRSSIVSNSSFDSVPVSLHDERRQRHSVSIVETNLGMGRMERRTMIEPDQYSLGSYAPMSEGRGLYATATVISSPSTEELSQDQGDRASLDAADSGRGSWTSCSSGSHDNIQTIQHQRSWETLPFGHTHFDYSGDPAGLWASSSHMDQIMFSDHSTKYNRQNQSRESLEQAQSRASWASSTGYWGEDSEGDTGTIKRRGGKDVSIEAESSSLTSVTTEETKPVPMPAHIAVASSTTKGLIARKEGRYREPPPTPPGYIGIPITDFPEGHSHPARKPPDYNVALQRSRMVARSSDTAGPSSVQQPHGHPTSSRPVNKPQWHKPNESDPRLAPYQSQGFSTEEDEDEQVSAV
Description: The small GTPase Ras controls the MAPK pathway and exerts its effects on cellular processes primarily through this pathway. MAPK is a downstream kinase of Ras and thus, Ras activation leads to MAPK activation (FIG. 6A). Therefore, we show the GRF4 effects on MAPK activation using assays in which levels of active MAPK in cells is determined using antibodies recognizing phosphorylated (active) MAPK.

Ras = Ras activation assay in living cells, GRF4 and deletion mutants expressed in HEK-293T cells; format: cell-based, human; settings: HEK-293T cells treated with 8-Br-cAMP
Description: HEK-293T cells were transfected with vector alone, GRF4 (WT), GRF4 lacking its cNMP-BD (ΔcNMP-BD) or its CDC25 domain (ΔCDC25), and then treated (or not) with 8-Br-cAMP. Cell lysates were then incubated with GST-Raf1-RBD to precipitate active Ras, and immunobloited with anti Ras antibodies as above (upper panel). Lower panels are controls for total endogenous Ras and transfected GRF4 or its mutants.
Flag, HA or myc tags was added to the N-terminus of full length GRF4 using PCR, and subcloned into the mammalian expression vector pCMV5 (Invitrogen). Mutants GRF4 with deletion of the CDC25 domain (residue 711-1007, GRF4DCDC25 or DCDC25 for short), the cNMP-BD (residue 134-254, DcNMP-BD), the PLPF motif in the PDZ domain (residue 396-399, -PLPF), or bearing mutations in the PDZ-binding motif (SAV to AAA), were generated using PCR. The GST-GRF4-cNMP-BD (residue 101-303) and GST-Carboxy-terminus (residue 1348-1499) were PCR-generated and cloned into pGEX-2T ( Pharmacia). The latter construct was used to generate a fusion protein (GST-GRF4C terminus) which was used to immunize rabbits for the generation of polyclonal anti GRF4 antibodies.
HEK-293T cells were transfected as above, serum starved overnight and then subjected to various treatments, as described in the text. […] GTP in the lysates was determined using activation specific probes as described. Briefly, to determined the levels of active Ras (Ras-GTP) in cell, sepharose-bound GST fusion protein of the Ras-binding domain (RBD) of Raf-1 (GST-Raf1-RBD; Upstate Biotechnology Inc.) was used to precipitate Ras-GTP from cell lysates, and the amount of Ras-GTP determined by immunoblotting with anti Ras antibodies (Quality Biotech). Similarly, to determine the level of Rap1-GTP in cell lysates, sepharose-bound GST fusion proteins of the Rap1-binding domain of RaIGDS (GST-RaIGDS-RBD) were used to precipitate Rap1-GTP, which was then detected on a Western blot using anti-Rap1 antibodies (Transduction Lab).

- Activation of Ras and MAPK by the expressed mutant (GRF4): constitutively
B1: ΔcNMP-BD: Mutant GRF4 with deletion of the cNMP-BD (residue 134-254) (protein)
chain: T1 sequence (Q9Y4G8 with tags, fused parts or gaps DEL134-254)
- 8-Br-cAMP-mediated activation of Ras via the construct, compared with wt-GRF4 (Ras): almost abolished
